Data reported in patent publication US20100112602A1 (published 2010).

Biological target: T1, GFP-rev-p53 biosensor
T1 construct: also called rev-p53-GFP; NLS-p53-GFP construct
Assay: co-localization of fluorescent biosensor components co-expressed in U2OS cells

B1: TagGFP-NES/NLS-HDM2 biosensor (other)
chain: MVSKGEELIKENMHMKLYMEGTVNNHHFKCTSEGEGKPYEGTQTMRIKVVEGGPLPFAFDILATSFMYGSRTFINHTQGIPDFFKQSFPEGFTWERVTTYEDGGVLTATQDTSLQDGCLIYNVKIRGVNFPSNGPVMQKKTLGWEANTEMLYPADGGLEGRSDMALKLVGGGHLICNFKTTYRSKKPAKNLKMPGVYYVDHRLERIKEADKETYVEQHEVAVARYCDLPSKLGHKLNSGLRSRAQASNSPQTPLHTSRVLKEDKERWEDVKEEMTSALATMCVDYEQIKIKKIEDASNPLLLKRRKKLEMCNTNMSVPTDGAVTTSQIPASEQETLVRPKPLLLKLLKSVGAQKDTYTMKEVLFYLGQYIMTKRLYDEKQQHIVYCSNDLLGDLFGVPSFSVKEHRKIYTMIYRNLVVVNQQESSDS
notes: also called NES/NLS-HDM2-RFP; shuttling component
binding result: binds
